Test results as given in patent publication US20230049752A1 (University of California, published 2023).
Where a chain is given by its changes, count along the chain named.

T1: mouse Claudin-6 (CLDN6) (mouse, UniProt Q9Z262 1-219)
T1 construct: whole, on cells; GFP fusion on engineered HEK293T cells; also called Mouse CLDN6; murine CLDN6
T1 sequence (looked up): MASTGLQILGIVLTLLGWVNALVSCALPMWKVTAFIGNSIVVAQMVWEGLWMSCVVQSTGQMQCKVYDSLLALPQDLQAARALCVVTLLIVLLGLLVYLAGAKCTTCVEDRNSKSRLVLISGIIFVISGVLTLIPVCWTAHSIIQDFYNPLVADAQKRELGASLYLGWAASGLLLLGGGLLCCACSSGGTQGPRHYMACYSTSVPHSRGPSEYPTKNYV

B1: AB1-5 (antibody, V domains shown)
VH: QVQLVQSGAEVKKPGASVKVSCKASGYTFTTYTMHWVRQAPGQGLEWMGFINPSSGYTDYAQKFQGRVTMTADTSTSTVYMELSSLRSEDTAVYYCANGDYYVAYWGQGTLVTVSS
VL: DIQLTQSPSSLSASVGDRVTMTCTASSSVSSTYFHWYQQKPGKAPKLWIYSTSNLASGVPSRFSGSGSGTDYTLTISSMQPEDAATYYCHQYHRSPLTFGQGTKLEIK
notes: humanized
B2: AB1-8 (antibody, V domains shown)
VH: B1 VH with V20M, M48I, M70L
VL: B1 VL
notes: humanized
B3: AB3-3 (antibody, V domains shown)
VH: EVQLLESGGGLVQPGGSMRLSCAASGFTFSNYWMNWVRQAPGKGLEWVAQIRLKSDNYATHYADSVKGRFTISRDDSKNTVYLQMNSLRAEDTGVYYCNDGPPSGCWGQGTLLTVSS
VL: DIQMTQSPSSLSASVGDRVTITCRISENIYSYLAWYQQKPGKAPKLLVYNAKILVEGVPSRFSGSGSGTDFTLTISSLQPEDFGTYYCQHHYTVPWTFGQGTKLEIK
notes: humanized
B4: AB3-2 (antibody, V domains shown)
VH: B3 VH
VL: B3 VL with V48I, G84A
notes: humanized
B5: AB3-4 (antibody, V domains shown)
VH: B3 VH with C106Y
VL: B3 VL with V48I, G84A
notes: humanized
B6: AB3-5 (antibody, V domains shown)
VH: B3 VH with C106Y
VL: B3 VL
notes: humanized
B7: AB1-Chim (antibody, V domains shown)
VH: QVQLQQSAAELARPGASVKMSCKASGYTFTTYTMHWVKQRPGQGLEWIGFINPSSGYTDYNQKFKDRTTLTADKSSSTVYMQLSSLTSEDSAVYYCANGDYYVAYWGQGTLVTVSA
VL: QIVLTQSPAIMSASLGERVTMTCTASSSVSSTYFHWYQQKPGSSPKLWIYSTSNLASGVPRRFSGSASGTSYSLTISSMEAEDAATYYCHQYHRSPLTFGAGTKLELK
B8: AB3-chim (antibody, V domains shown)
VH: EVKLEESGGGLVQPGGSMKLSCVASGFTFSNYWMNWVRQSPEKGLEWVAQIRLKSDNYATHYAESVKGRFTISRDDSKRSVYLQMNNLRAEDTGTYYCNDGPPSGCWGQGTTLIVSS
VL: DIQMTQSPASLSASVGETVTITCRISENIYSYLAWYQQKQGKSPQLLVYNAKILVEGVPSRFSGSGSGTQFSLKINSLQPEDFGNYYCQHHYTVPWTFGGGTKLEIK
B9: AB4-chim (antibody, V domains shown)
VH: QVQLQQSGAELARPGASVKMSCKASGYTFTSYTMHWIKQRPGQGQEWIGYINPSSTYTHYIKKFKDKATLTADKSSSTAYMQLRSLTSEDSAVYYCSRGELGGFAYWGQGTLVTVSA
VL: DVVMTQTPLSLPVSLGDQASISCRSSQSLVHSDGNTYLNWYLQKPGQSPKLLIYKVSNRFSGVPDRFSGSGSGTDFTLKIRRVEAEDLGVYFCSQSTHVPYTFGGGTKLEIK
B10: AB4-4 (antibody, V domains shown)
VH: QVQLVQSGAEVKKPGASVKMSCKASGYTFTSYTMHWIRQAPGQGLEWIGYINPSSTYTHYAQKFQGRATLTADTSTSTAYMELSSLRSEDTAVYYCSRGELGGFAYWGQGTLVTVSS
VL: DVVMTQSPLSLPVTLGQPASISCRSSQSLVHSDGNTYLNWYQQRPGQSPRLLIYKVSNRFSGVPDRFSGSGSGTDFTLKISRVEAEDVGVYYCSQSTHVPYTFGQGTKLEIK
notes: humanized
B11: AB4-3 (antibody, V domains shown)
VH: B10 VH with M20V, I37V, I48M, A68V, L70M, A79V
VL: B10 VL
notes: humanized
B12: AB4-5 (antibody, V domains shown)
VH: B10 VH with L45Q
VL: B10 VL
notes: humanized
B13: AB9-4 (antibody, V domains shown)
VH: QVQLVQSGAEVKKPGASVKMSCKASGYRFTDYNMHWVRQAPGQGLEWIGYINPNNGGTNYAQKFQGRATLTVDTSTSTAYMELSSLRSEDTAVYYCARDYLYFFDCWGQGTLLTVSS
VL: DIQMTQSPSSLSASVGDRVTITCRASQTIGTWLAWYQQKPGKAPKLLIYAAASLADGVPSRFSGSGSGTDFTFTISSLQPEDFVTYYCQQLYSIPRTFGQGTKLEIK
notes: humanized
B14: AB11-chim (antibody, V domains shown)
VH: DVQLVESGGGLVQPRGSRKLSCAASGFTFSSFGMHWVRQAPEKGLEWVAYISSDSRTIYYADTVKGRFTISRDNPTNTLFLQMTSLRSEDTAMYYCARDYGRTYEAYWGQGTLVTVSA
VL: DIVLTQSPASLAVSLGQRATISCRASKSVSTSGYSYIHWYQQKPGQPPKLLIYLASNLESGVPARFSGSGSGTDFTLNIHPVEEEDAATYYCQHSRELPLTFGAGTKLELK
B15: AB11-2 (antibody, V domains shown)
VH: EVQLVESGGGLVQPGGSLRLSCAASGFTFSSFGMHWVRQAPGKGLEWVAYISSDSRTIYYADSVKGRFTISRDNAKNSLYLQMNSLRAEDTAVYYCARDYGRTYEAYWGQGTLVTVSS
VL: DIVMTQSPDSLAVSLGERATINCRASKSVSTSGYSYIHWYQQKPGQPPKLLIYLASNLESGVPDRFSGSGSGTDFTLTISSLQAEDVAVYYCQHSRELPLTFGQGTKLEIK
notes: humanized
B16: AB11-3 (antibody, V domains shown)
VH: B15 VH
VL: B15 VL with M4L, L82V, I110L
notes: humanized

target: human Claudin-6 (CLDN6) (human) (UniProt P56747); assay: FACS, 0.3 ug Ab, ARK2 cells (2nd Ab only 1351.21)

| Binder | FACS fluorescence |
| --- | --- |
| B1 | 7490 |
| B2 | 5810 |
| B3 | 1160 |
| B4 | 14700 |
| B5 | 1320 |
| B6 | 1280 |
| B7 | 58800 |
| B8 | 17100 |
| B9 | 19100 |
| B10 | 1050 |
| B11 | 1190 |
| B12 | 967 |
| B13 | 1120 |
| B14 | 1320 |
| B15 | 1400 |
| B16 | 1320 |

target: human Claudin-6 (CLDN6) (human) (UniProt P56747); assay: FACS, 1.5 ug Ab, ARK2 cells (2nd Ab only 1351.21)

| Binder | FACS fluorescence |
| --- | --- |
| B1 | 22400 |
| B2 | 17600 |
| B3 | 54900 |
| B4 | 33600 |
| B5 | 1460 |
| B6 | 2910 |
| B7 | 51900 |
| B8 | 29100 |
| B9 | 38400 |
| B10 | 1400 |
| B11 | 1520 |
| B12 | 1200 |
| B13 | 1550 |
| B14 | 1260 |
| B15 | 1940 |
| B16 | 1540 |

target: human Claudin-6 (CLDN6) (human) (UniProt P56747); assay: FACS, 1.5 ug Ab, OVCA429 cells (2nd Ab only 885.77)

| Binder | FACS fluorescence |
| --- | --- |
| B1 | 54300 |
| B2 | 66000 |
| B3 | 88700 |
| B4 | 85900 |
| B5 | 2960 |
| B6 | 2950 |
| B7 | 177000 |
| B8 | 138000 |
| B9 | 64800 |
| B10 | 1200 |
| B11 | 1160 |
| B12 | 1350 |
| B13 | 1110 |
| B14 | 2440 |
| B15 | 2690 |
| B16 | 2200 |

target: human Claudin-6 (CLDN6) (human) (UniProt P56747); assay: FACS, 0.3 ug Ab, 293T clone expressing human CLDN6 (2nd Ab only 768.07)

| Binder | FACS fluorescence |
| --- | --- |
| B1 | 138000 |
| B2 | 98800 |
| B3 | 251000 |
| B4 | 309000 |
| B5 | 11600 |
| B6 | 13300 |
| B7 | 312000 |
| B8 | 267000 |
| B9 | 176000 |
| B10 | 14100 |
| B11 | 14300 |
| B12 | 16800 |
| B13 | 15300 |
| B14 | 1670 |
| B15 | 1290 |
| B16 | 1010 |

target: human Claudin-6 (CLDN6) (human) (UniProt P56747); assay: FACS, 1.5 ug Ab, 293T clone expressing human CLDN6 (2nd Ab only 768.07)

| Binder | FACS fluorescence |
| --- | --- |
| B1 | 213000 |
| B2 | 210000 |
| B3 | 340000 |
| B4 | 396000 |
| B5 | 55800 |
| B6 | 48600 |
| B7 | 364000 |
| B8 | 459000 |
| B9 | 327000 |
| B10 | 49000 |
| B11 | 47800 |
| B12 | 43400 |
| B13 | 34300 |
| B14 | 3490 |
| B15 | 2560 |
| B16 | 2360 |

target: T1, mouse Claudin-6 (CLDN6); assay: FACS, 293T clone expressing mouse CLDN6, dose not stated (2nd Ab only 1061.72)
Procedure: Two doses (1.5 μg or 0.3 μg) of the humanized antibodies were tested for binding to either human CLDN6 or murine CLDN6 which proteins were expressed by engineered 293T clones.

| Binder | FACS fluorescence |
| --- | --- |
| B1 | 128000 |
| B2 | 122000 |
| B3 | 23000 |
| B4 | 31700 |
| B5 | 1520 |
| B6 | 783 |
| B7 | 514000 |
| B8 | 67900 |
| B9 | 3640 |
| B10 | 741 |
| B11 | 671 |
| B12 | 2000 |
| B13 | 1710 |
| B14 | 5490 |
| B15 | 7160 |
| B16 | 5520 |
